Experimental findings from patent publication US20240199750A1 are described below.

Experiment [1] has as its target IL-2Rβ (CD122) on NK cells (human) (UniProt P14784). Briefly: cell-based or functional assay.
The target of experiment [2] is high affinity IL-2Rαβγ complex on Treg cells (human) (UniProt P01589). Briefly: cell-based or functional assay.
Sequence of UniProt P01589 (P01589 22-272, chain 1 of 3): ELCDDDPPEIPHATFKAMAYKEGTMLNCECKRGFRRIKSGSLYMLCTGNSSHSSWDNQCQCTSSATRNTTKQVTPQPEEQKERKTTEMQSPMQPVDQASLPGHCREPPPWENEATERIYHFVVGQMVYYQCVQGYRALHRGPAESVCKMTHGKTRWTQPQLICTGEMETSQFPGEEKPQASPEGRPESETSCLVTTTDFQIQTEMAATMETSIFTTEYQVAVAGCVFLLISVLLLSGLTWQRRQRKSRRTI
Sequence of UniProt P01589 (P14784 27-551, chain 2 of 3, further chain): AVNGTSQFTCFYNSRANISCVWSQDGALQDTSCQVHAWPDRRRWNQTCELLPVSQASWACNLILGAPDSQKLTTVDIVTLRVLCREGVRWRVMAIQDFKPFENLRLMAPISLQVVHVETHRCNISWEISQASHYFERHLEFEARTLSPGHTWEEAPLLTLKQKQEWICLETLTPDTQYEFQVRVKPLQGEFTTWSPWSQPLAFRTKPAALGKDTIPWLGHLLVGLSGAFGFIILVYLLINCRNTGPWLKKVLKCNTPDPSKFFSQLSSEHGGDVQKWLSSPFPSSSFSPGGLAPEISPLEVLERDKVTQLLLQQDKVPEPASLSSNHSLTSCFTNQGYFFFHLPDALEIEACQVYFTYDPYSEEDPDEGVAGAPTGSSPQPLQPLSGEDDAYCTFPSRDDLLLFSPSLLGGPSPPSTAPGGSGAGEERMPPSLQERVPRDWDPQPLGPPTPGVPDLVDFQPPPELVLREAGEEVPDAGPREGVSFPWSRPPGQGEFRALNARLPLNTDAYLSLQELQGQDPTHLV
Sequence of UniProt P01589 (P31785 23-369, chain 3 of 3, further chain): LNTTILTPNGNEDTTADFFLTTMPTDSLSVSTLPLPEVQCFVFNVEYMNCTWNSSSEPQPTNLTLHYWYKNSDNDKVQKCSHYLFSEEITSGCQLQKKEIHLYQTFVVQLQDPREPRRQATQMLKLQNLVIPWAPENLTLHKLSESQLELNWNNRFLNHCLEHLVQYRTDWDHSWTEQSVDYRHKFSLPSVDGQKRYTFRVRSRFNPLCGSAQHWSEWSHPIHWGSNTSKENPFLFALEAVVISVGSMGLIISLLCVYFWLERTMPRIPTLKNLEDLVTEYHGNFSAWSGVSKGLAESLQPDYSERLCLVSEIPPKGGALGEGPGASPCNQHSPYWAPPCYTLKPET

Sequence of UniProt P14784 (P14784 27-551): as the sequence (P14784 27-551, chain 2 of 3, further chain) above

B1: CD20-T5-NKp46-IL2v3 (protein, part only; not given: anti-CD20 antibody chains, anti-NKp46 domain, part only)
chain, part: SSSTKKTQLQLEHLLLDLQMILNGINNYKNPKLTAMLAKKFYMPKKATELKHLQCLEEELKPLEEVLNLAQSKNFHLRPRDLISNINVIVLELKGSETTFMCEYADETATIVEFLNRWITFCQSIISTLT
As for B1, the % pSTAT5, EC50 NK cells in experiment [1] is 10 pM. This molecule also yielded a % pSTAT5, EC50 Tregs in experiment [2] of 0.7 nM.
